Measured values: paper PMC3733153 (Journal of Experimental Botany, 2013)

T1: GST-GDI1(3D), phosphomimetic form GDI1 S45D S48D T52D (Arabidopsis, UniProt Q9SFC6 1-240, S45D | S48D | T52D)
T1 sequence: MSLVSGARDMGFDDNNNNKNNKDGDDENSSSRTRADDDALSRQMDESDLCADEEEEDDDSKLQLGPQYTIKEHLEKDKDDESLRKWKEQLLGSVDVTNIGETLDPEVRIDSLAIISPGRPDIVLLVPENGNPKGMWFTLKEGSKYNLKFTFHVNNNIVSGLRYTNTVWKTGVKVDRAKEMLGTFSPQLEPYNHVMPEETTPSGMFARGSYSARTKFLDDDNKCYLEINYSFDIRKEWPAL

B1: His-ROP6 (natural protein)
chain: not shown
B2: His-ROP10 (natural protein)
chain: not shown
B3: His-ROP2 (natural protein)
chain: not shown

The binders below were run against T1, GST-GDI1(3D), phosphomimetic form GDI1 … (assay: pull-down).

Binder | binding result
B1 | binds
B2 | binds
B3 | binds
